This note sets out measurements from publication doi:10.1101/2024.03.08.584095, “LPOR and the membranes – evolutionary pathway towards prolamellar body formation” (bioRxiv, 2024).

This series deals with the molecule itself. Put plainly: negative-stain electron microscopy; purified SynPOR with PG lipids and either Chlide + NADPH or Pchlide + NADP+; search for large oligomers; 37 mM sodium phosphate pH 7.1, 225 mM NaCl, 150 mM imidazole, 5 mM beta-mercaptoethanol, 25% glycerol.

B1: light-dependent protochlorophyllide oxidoreductase from Synechocystis (SynPOR) (enzyme, UniProt Q59987 1-322, looked up)
chain: MEQPMKPTVIITGASSGVGLYGAKALIDKGWHVIMACRNLDKTQKVADELGFPKDSYTIIKLDLGYLDSVRRFVAQFRELGRPLKALVCNAAVYFPLLDEPLWSADDYELSVATNHLGHFLLCNLLLEDLKACPDADKRLIILGTVTANSKELGGKIPIPAPPDLGNFEGFEAGFKKPIAMINNKKFKSGKAYKDSKLCNMLTTRELHRRFHQETGIVFNSLYPGCVADTPLFRNHYSLFRTIFPWFQKNVTKGYVSQELAGERVAMVVADDKFKDSGVHWSWGNRQQAGREAFVQELSEQGSDAQKAQRMWDLSEKLVGLV
notes: light-dependent protochlorophyllide oxidoreductase (SynPOR), Synechocystis, Uniprot Q59987; The reaction buffer holds 150 mM imidazole, so a His tag is likely (surmise); In the assay it stood with PG liposomes, pigment (Pchlide or Chlide) and NADP+ or NADPH; also called cyanobacterial LPOR; LPOR
Regarding B1, the binding result is on record as “binds”.
